We go through eight molecules from PMC11077971 (mBio, 2024).

Data set [1] deals with T1, ACC complex (biotinylated BC1 with CTβ-CTα) (Chloroflexus aurantiacus, UniProt A9WBQ8+A9WBQ9).
T1 construct: gene accD; His6-tagged, E. coli BL21(DE3); with Biotin carboxylase (acetyl-CoA carboxylase, biotin carboxylase; fused BC-BCCP)
The data set is described as follows: HPLC and MS detection of malonyl-CoA. The class given is biochemical. As to conditions: 10 mM acetyl-CoA, 40 mM bicarbonate, 1 mM ATP, 5 mM MgCl2, pH 9.0, RT.

Data set [2] deals with T2, E. coli BirA (Escherichia coli, UniProt P06709).
T2 construct: Met1-Lys321, N-terminal His6 tag (pET28a), E. coli BL21(DE3)
T2 sequence (P06709 whole entry): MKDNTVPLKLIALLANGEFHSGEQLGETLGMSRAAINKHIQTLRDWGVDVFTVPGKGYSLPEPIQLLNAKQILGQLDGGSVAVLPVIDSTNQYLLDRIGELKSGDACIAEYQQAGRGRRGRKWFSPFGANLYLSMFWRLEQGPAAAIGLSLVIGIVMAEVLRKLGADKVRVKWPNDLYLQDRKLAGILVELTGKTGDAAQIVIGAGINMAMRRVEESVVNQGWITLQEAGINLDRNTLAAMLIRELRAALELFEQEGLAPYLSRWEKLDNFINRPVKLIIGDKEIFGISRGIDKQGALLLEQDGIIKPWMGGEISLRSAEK
Kind of data set: HPLC-MS of biotinylated BCCP core. The format is biochemical. As to conditions: apo-BCCP core (BC1) as acceptor protein, 10 µM biotin, 0.3 mM ATP, 5 mM MgCl2, pH 8.0, 37 °C.

Substrate in data set [3]: O=C(O)CCCC[C@@H]1SC[C@@H]2NC(=O)N[C@@H]21
Kind of data set: purified protein. As to conditions: apparent Km, free biotin as carboxyl acceptor, 40 mM bicarbonate, 2 mM ATP, 8 mM MgCl2, 100 mM Hepes pH 8.0, 25 °C.

Substrate in data set [4]: O=C(O)O
The data set is described as follows: purified protein. As to conditions: apparent Km, 40 mM biotin, 2 mM ATP, 8 mM MgCl2, 100 mM Hepes pH 8.0, 25 °C.

Data set [5] concerns the molecule itself. The data set is described as follows: AUC + SEC; sedimentation velocity, 42,000 rpm, 20°C, initial A280 ~0.7, Sedfit; gel filtration on a Superdex 200 column. For orientation: SEC sorts molecules by how far they enter the pores of the column.
Data set [6] deals with the molecule itself. The data set is described as follows: crystal structure; hanging-drop vapor diffusion at 16°C; BC1 at 6.5 mg/mL, BC2 at 10 mg/mL in 20 mM Tris-HCl pH 8.0, 150 mM NaCl, 2 mM MgCl2; molecular replacement.

T1 sequence (A9WBQ8 entry or part of it, one chain of several): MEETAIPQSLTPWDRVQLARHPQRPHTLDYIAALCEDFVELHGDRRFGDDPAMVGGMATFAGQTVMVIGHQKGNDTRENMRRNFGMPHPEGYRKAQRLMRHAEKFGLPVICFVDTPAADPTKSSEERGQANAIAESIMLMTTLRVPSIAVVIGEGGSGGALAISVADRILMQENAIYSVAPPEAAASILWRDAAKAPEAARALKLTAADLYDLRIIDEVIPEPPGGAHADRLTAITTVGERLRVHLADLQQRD
T1 sequence (A9WBQ9 24-305, one chain of several): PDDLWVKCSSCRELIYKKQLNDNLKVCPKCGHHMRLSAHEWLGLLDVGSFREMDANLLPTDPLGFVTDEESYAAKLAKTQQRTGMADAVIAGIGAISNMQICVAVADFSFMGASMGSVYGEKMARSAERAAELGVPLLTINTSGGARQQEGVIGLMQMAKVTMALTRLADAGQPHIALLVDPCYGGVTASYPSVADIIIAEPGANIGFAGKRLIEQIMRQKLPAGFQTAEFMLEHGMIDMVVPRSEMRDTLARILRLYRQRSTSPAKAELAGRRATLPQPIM

Regarding `CC(=O)SCCNC(=O)CCNC(=O)[C@H](O)C(C)(C)COP(=O)(O)OP(=O)(O)OC[C@H]1O[C@@H](n2cnc3c(N)ncnc32)[C@H](O)[C@@H]1OP(=O)(O)O` [acetyl-CoA], the “HPLC and MS detection of malonyl-CoA” value in data set [1] is on record as “the reconstituted ACC complex is enzymatically active”.
With `O=C(O)CCCC[C@@H]1SC[C@@H]2NC(=O)N[C@@H]21` [biotin], in data set [2], the “HPLC-MS of biotinylated BCCP core” value was “BC1-BCCP domain can be biotinylated by both E. coli and C. aurantiacus BirA”.

B1: His6-BC1ΔBCCP (Met1-Glu452) (domain or fragment, Chloroflexus aurantiacus J-10-fl, UniProt A9W9X0 1-452, looked up)
chain: MFRTILVANRGEIALRVMRACRELGLRCVAVYSEADRDAPHVAYADDAFLIGPPSPAESYLNIDAIIRAAKATGAEAIHPGYGFLAENASFVRAVTAAGLIFIGPPAEAMERMGGKTAARREATAAGVPVVPGVLEPVTDAAEVRRLGKEFGYPIAIKAVGGGGGRGLRVVRSPEEVDEAFAAARREAEVAFKNGELYVEKYLDDPRHIEIQVLADRYGNAVALGERDCSVQRRHQKLIEECPSPALTPELRAEMGAAAVRLAKAVGYVSAGTLEFLFQDGRYYFLEMNTRIQVEHTVTEMVYGIDLVAAQIRIAQGEKLWFKQEDVVPRGHAIECRINAEDPLHNFRPALGTIGEYHEPVGFGVRVDSGVRAYYTVPSHYDSLLAKLITWGSDRQEAIARMRRALAEYRIEGVTTIIPFHQAALEHPVFTAGAATVNFIPRHPELFSRAAE
notes: BC domain of biotin carboxylase isoform BC1, Chloroflexus aurantiacus J-10-fl; also called BCCP-truncated BC1 mutant; not shown: His6, N-terminal, kept
On to B1, for which, in data set [3], the Km (as a rule, the concentration of substrate that gives half-maximal velocity) was 17.1 ± 1.2 mM; the kcat (usually the maximal rate divided by the concentration of active sites) came to 15.6 s⁻¹; the kcat/Km (usually the second-order rate constant that governs catalysis at low substrate concentration) is 920 M⁻¹ s⁻¹. In data set [4], the Km worked out at 7.4 ± 0.3 mM, the kcat turned out to be 14.3 s⁻¹ and the specificity constant (kcat/Km) came to 1930 M⁻¹ s⁻¹. Moreover, the stoichiometry N (commonly the number of molecules, sites or subunits per partner or assembly) in data set [5] is 2.

B2: BC1ΔBCCP^β-hairpin (BC1 lacking Thr473-Gly486) (enzyme, Chloroflexus aurantiacus J-10-fl, UniProt A9W9X0 1-596, looked up)
chain: MFRTILVANRGEIALRVMRACRELGLRCVAVYSEADRDAPHVAYADDAFLIGPPSPAESYLNIDAIIRAAKATGAEAIHPGYGFLAENASFVRAVTAAGLIFIGPPAEAMERMGGKTAARREATAAGVPVVPGVLEPVTDAAEVRRLGKEFGYPIAIKAVGGGGGRGLRVVRSPEEVDEAFAAARREAEVAFKNGELYVEKYLDDPRHIEIQVLADRYGNAVALGERDCSVQRRHQKLIEECPSPALTPELRAEMGAAAVRLAKAVGYVSAGTLEFLFQDGRYYFLEMNTRIQVEHTVTEMVYGIDLVAAQIRIAQGEKLWFKQEDVVPRGHAIECRINAEDPLHNFRPALGTIGEYHEPVGFGVRVDSGVRAYYTVPSHYDSLLAKLITWGSDRQEAIARMRRALAEYRIEGVTTIIPFHQAALEHPVFTAGAATVNFIPRHPELFSRAAELTPPTAASAGAEPAPEPRRFGDGMNATPVASPSRSAPARRAAPKKTTLAAPVDAVISPIQGRVVAVRVAHGQQVEAGQVLFIVEAMKMENEITAPHSGTIAEVRVEVGTTVEAGAMLATYQNTANNTNGK
notes: biotin carboxylase isoform BC1, Chloroflexus aurantiacus J-10-fl, with the β-hairpin motif Thr473-Gly486 deleted; Vector pET28a-bc1Δbccp^β-hairpin; source: E. coli BL21(DE3), purified
Take B2: the “stoichiometry N” value in data set [5] came out at 2.

B3: His6-BC1ΔBCCP^Core (Met1-Lys510) (domain or fragment, Chloroflexus aurantiacus J-10-fl, UniProt A9W9X0 1-510, looked up)
chain: MFRTILVANRGEIALRVMRACRELGLRCVAVYSEADRDAPHVAYADDAFLIGPPSPAESYLNIDAIIRAAKATGAEAIHPGYGFLAENASFVRAVTAAGLIFIGPPAEAMERMGGKTAARREATAAGVPVVPGVLEPVTDAAEVRRLGKEFGYPIAIKAVGGGGGRGLRVVRSPEEVDEAFAAARREAEVAFKNGELYVEKYLDDPRHIEIQVLADRYGNAVALGERDCSVQRRHQKLIEECPSPALTPELRAEMGAAAVRLAKAVGYVSAGTLEFLFQDGRYYFLEMNTRIQVEHTVTEMVYGIDLVAAQIRIAQGEKLWFKQEDVVPRGHAIECRINAEDPLHNFRPALGTIGEYHEPVGFGVRVDSGVRAYYTVPSHYDSLLAKLITWGSDRQEAIARMRRALAEYRIEGVTTIIPFHQAALEHPVFTAGAATVNFIPRHPELFSRAAELTPPTAASAGAEPAPEPRRFTIEVNGRRFGVAVFGDGMNATPVASPSRSAPARRAAPK
notes: biotin carboxylase isoform BC1 without the BCCP core, Chloroflexus aurantiacus J-10-fl; The cloning of this construct is not described in the methods; source: E. coli BL21(DE3), purified
Regarding B3, the “stoichiometry N” value in data set [5] is 4.

B4: Chloroflexus aurantiacus BC2 (His6-tagged, Met1-Val455) (enzyme, Chloroflexus aurantiacus J-10-fl, UniProt A9WKH8 1-455, looked up)
chain: MIRKVLVANRGEIAVRIIRACQELGIRTVVAYSTADRDSLAVRLADEAVCIGPPPAAKSYLNAPALISAALVSGCDAIHPGYGFLSENPYFAEMCADCKLTFIGPPPEPIRLMGDKAIGRETMRKAGVPTVPGSDGEVRSLEEAIDVARQIGYPVLLKPSGGGGGRGMRVAYDEADLQRAFPTARAEAEAAFGNGALLLEKYLTRVRHVEIQVLADQYGHAIHLGERDCSAQRRHQKIVEEAPSPAVTPELRERMGADAVRGIKSIGYVNAGTLEFLLDQDGNYYFIEMNTRIQVEHPVTEQVTGIDLVRWQLLIASGERLTLRQEDIKITRHAIECRINAEDPERDFLPASGEVEFYLPPGGPGVRVDSHLYSGYTPPGTYDSLLAKIITFGDTRDEALNRMRRALNECVITGIKTTIPFQLALIDDPEFRAGRIHTGYVAELLRQWKETLNPV
notes: biotin carboxylase isoform BC2, Chloroflexus aurantiacus J-10-fl, 455 residues; Met1-Val455 is called full-length; also called His6-BC2; biotin carboxylase isoform 2; not shown: His6, N-terminal, kept
As for B4, in data set [3], the Km is given as 14.8 ± 2.2 mM, the kcat turned out to be 16.7 s⁻¹ and the kcat/Km worked out at 1160 M⁻¹ s⁻¹. Also, in data set [4], the Km was 6.7 ± 0.9 mM, the kcat was 16.2 s⁻¹ and the kcat/Km stood at 2380 M⁻¹ s⁻¹. Also, the “stoichiometry N” value in data set [6] was 2.

B5: BC1 (Chloroflexus aurantiacus J-10-fl) (protein)
chain: MFRTILVANRGEIALRVMRACRELGLRCVAVYSEADRDAPHVAYADDAFLIGPPSPAESYLNIDAIIRAAKATGAEAIHPGYGFLAENASFVRAVTAAGLIFIGPPAEAMERMGGKTAARREATAAGVPVVPGVLEPVTDAAEVRRLGKEFGYPIAIKAVGGGGGRGLRVVRSPEEVDEAFAAARREAEVAFKNGELYVEKYLDDPRHIEIQVLADRYGNAVALGERDCSVQRRHQKLIEECPSPALTPELRAEMGAAAVRLAKAVGYVSAGTLEFLFQDGRYYFLEMNTRIQVEHTVTEMVYGIDLVAAQIRIAQGEKLWFKQEDVVPRGHAIECRINAEDPLHNFRPALGTIGEYHEPVGFGVRVDSGVRAYYTVPSHYDSLLAKLITWGSDRQEAIARMRRALAEYRIEGVTTIIPFHQAALEHPVFTAGAATVNFIPRHPELFSRAAELTPPTAASAGAEPAPEPRRFTIEVNGRRFGVAVFGDGMNATPVASPSRSAPARRAAPKKTTLAAPVDAVISPIQGRVVAVRVAHGQQVEAGQVLFIVEAMKMENEITAPHSGTIAEVRVEVGTTVEAGAMLATYQNTANNTNGK
Take B5: in data set [3], the Km is listed as 11.4 ± 0.2 mM, the kcat is 19.1 s⁻¹ and the kcat/Km came to 1670 M⁻¹ s⁻¹. For the same molecule, in data set [4], the Km is reported as 4.5 ± 0.1 mM, the kcat turned out to be 20.7 s⁻¹ and the kcat/Km was determined as 4560 M⁻¹ s⁻¹.

B6: Chloroflexus aurantiacus BC1 (His6-tagged, Met1-Lys596), not biotinylated in vitro (enzyme, Chloroflexus aurantiacus J-10-fl, UniProt A9W9X0 1-596, looked up)
chain: B5 chain
notes: biotin carboxylase isoform BC1 with fused BC (Met1-Glu452) and BCCP (Ala459-Lys596) domains, Chloroflexus aurantiacus J-10-fl, 596 residues; the pull-down control was; also called His6-BC1; unbiotinylated BC1; source: for the pull-down passed over streptavidin agarose to remove the biotinylated fraction; not shown: His6, N-terminal, kept
Turning to B6, in data set [6], the “stoichiometry N” value came to 4.
